Reference: article PMC10284548

Legend:
AsLOV2 [1] = assay: single-molecule force spectroscopy (dual-beam optical tweezers); constant load of 11 or 16 pN, dark; AsLOV2 and Zdk2 on one chain joined by (GGS)42, tethered by DNA handles between two beads; PBS, 1 mM TCEP, pH 7.4
AsLOV2 [2] = assay: single-molecule force spectroscopy (dual-beam optical tweezers); constant load of 11 or 16 pN under 488-nm light (laser intensity 3 and 30%, pooled); AsLOV2 and Zdk2 on one chain joined by (GGS)42; PBS, 1 mM TCEP, pH 7.4
AsLOV2(V416L) [3] = assay: single-molecule force spectroscopy (dual-beam optical tweezers); jump experiments between 0 and 20.5 ± 1 pN to obtain unbinding and rebinding lifetimes; AsLOV2 and Zdk2 on one chain joined by (GGS)42; PBS, 1 mM TCEP, pH 7.4
AsLOV2 [4] = assay: as above
AsLOV2(V416L) [5] = assay: single-molecule force spectroscopy (dual-beam optical tweezers); constant velocity (force-extension) experiments, 200 and 500 nm/s; AsLOV2 and Zdk2 on one chain joined by (GGS)42, tethered by DNA handles between two beads; PBS, 1 mM TCEP, pH 7.4, oxygen scavenger; dark
AsLOV2 [6] = assay: as above

Zdk2 (designed binder)
average lifetime of the bound state at 11 pN, without light (AsLOV2 [1]): 174 s
average lifetime of the bound state at 16 pN, without light (AsLOV2 [1]): 74 s
percent of experiments at 11 pN without dissociation within 9 min (AsLOV2 [1]): 30%
average lifetime of the bound state at 11 pN, with 488-nm light (AsLOV2 [2]): 47 s
average lifetime of the bound state at 16 pN, with 488-nm light (AsLOV2 [2]): 45 s
average lifetime of the peptide-bound state under force (AsLOV2(V416L) [3]): 0.18 s
rebinding time at zero force (AsLOV2(V416L) [3]): 0.44 s
average lifetime of the peptide-bound state under force (AsLOV2 [4]): 0.56 s
rebinding time at zero force (AsLOV2 [4]): 0.13 s
unbinding force (AsLOV2(V416L) [5]): 22 pN
unbinding force (AsLOV2 [6]): 24 pN
